In publication PMC4577447:

Target: transcription elongation complex
Assay: single-molecule fluorescence co-localization

- ka (apparent first-order association rate constant at 0.5 nM GreB): 0.0149 s⁻¹
B1: GreB (natural protein)
chain: MKTPLVTREGYEKLKQELNYLWREERPEVTKKVTWAASLGDRSENADYQYNKKRLREIDRRVRYLTKCLENLKIVDYSPQQEGKVFFGAWVEIENDDGVTHRFRIVGYDEIFGRKDYISIDSPMARALLKKEVGDLAVVNTPAGEASWYVNAIEYVKP
modifications: fluorescent dye label: Cy3 (Figure 5) or Cy3B (Figure 6); position not stated
